The values that follow are results of earlier work, collected in article PMC9066409.

In series [1] the target is FGFR1 (Homo sapiens) (UniProt P11362).
Series [2] shares this target. This is another data set of the same source.

Read-outs that look alike come from different tables or passages of the source.

Chain of UniProt P11362 (P11362 22-822): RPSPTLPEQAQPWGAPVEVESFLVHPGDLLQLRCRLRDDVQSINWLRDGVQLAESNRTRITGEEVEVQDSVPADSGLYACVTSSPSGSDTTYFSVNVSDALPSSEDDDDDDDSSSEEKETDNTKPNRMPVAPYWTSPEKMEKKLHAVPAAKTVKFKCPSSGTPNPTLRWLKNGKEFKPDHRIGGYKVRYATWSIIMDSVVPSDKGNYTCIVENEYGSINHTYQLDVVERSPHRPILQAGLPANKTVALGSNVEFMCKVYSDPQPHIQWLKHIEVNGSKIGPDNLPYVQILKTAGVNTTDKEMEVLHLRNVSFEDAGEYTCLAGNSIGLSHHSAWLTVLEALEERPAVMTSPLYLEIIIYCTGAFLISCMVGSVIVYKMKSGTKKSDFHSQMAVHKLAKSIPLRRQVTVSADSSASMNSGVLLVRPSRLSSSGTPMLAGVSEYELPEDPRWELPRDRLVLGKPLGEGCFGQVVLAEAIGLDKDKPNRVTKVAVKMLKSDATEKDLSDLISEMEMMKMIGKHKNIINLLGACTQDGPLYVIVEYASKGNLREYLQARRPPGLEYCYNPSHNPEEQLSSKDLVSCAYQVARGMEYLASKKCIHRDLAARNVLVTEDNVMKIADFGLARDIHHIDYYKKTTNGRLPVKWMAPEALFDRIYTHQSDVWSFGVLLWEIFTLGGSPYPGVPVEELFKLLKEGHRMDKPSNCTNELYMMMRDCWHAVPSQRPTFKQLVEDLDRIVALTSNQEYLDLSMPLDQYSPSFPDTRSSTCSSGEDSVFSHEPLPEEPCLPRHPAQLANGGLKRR

Take FGF1 (from UniProt P05230): the Kd with FGFR1 (Homo sapiens) [1] was 136 nM.
For the substance FGF2 (from UniProt P09038), the Kd with FGFR1 (Homo sapiens) [2] is 62 nM.
